To fix the notation:
B1: NRC3_wobSeed123_DR5_A17C_o1 (dsDNA)
DNA 1: GCCCTCGGAGGACAACCGGAGGTCAGAGCTGCCAGAGCGATTGACAGCGTAGAATGAAGG
DNA 2: CCTTCATTCTACGCTGTCAATCGCTCTGGCAGCTCTGACCTCCGGTTGTCCTCCGAGGGC
B2: NRC3_wobSeed88_DR3_T25C_o1 (dsDNA)
DNA 1: GCTAGCCTAGGTCATGCGGGCCAGCATAGTGTCGGCGCGATTGACAGCGTAGAATGAAGG
DNA 2: CCTTCATTCTACGCTGTCAATCGCGCCGACACTATGCTGGCCCGCATGACCTAGGCTAGC
B3: NRC3_wobSeed88_DR3_A4G_o1 (dsDNA)
DNA 1: B2 DNA 1 with A4G, C25T
DNA 2: B2 DNA 2 with G36A, T57C
B4: NRC3_wobSeed39_DR1_T23G_o1 (dsDNA)
DNA 1: GCCGAACTAGGTCAAAGGACAGGGAAAGGCGACGTAGCGATTGACAGCGTAGAATGAAGG
DNA 2: CCTTCATTCTACGCTGTCAATCGCTACGTCGCCTTTCCCTGTCCTTTGACCTAGTTCGGC
B5: NRC3_wobSeed39_DR1_G17A_o1 (dsDNA)
DNA 1: B4 DNA 1 with G17A, G23T
DNA 2: B4 DNA 2 with C38A, C44T
B6: NRC3_wobSeed135_DR5_G4C_o1 (dsDNA)
DNA 1: GCCCAACTAGGTCATTGACAGGACAGTGAATAGTAAGCGATTGACAGCGTAGAATGAAGG
DNA 2: CCTTCATTCTACGCTGTCAATCGCTTACTATTCACTGTCCTGTCAATGACCTAGTTGGGC
B7: NRC3_wobSeed38_DR1_A25C_o1 (dsDNA)
DNA 1: GCCCTGCTAGGTCAATGGTCAGCTCAAGCAGCTCGCGCGATTGACAGCGTAGAATGAAGG
DNA 2: CCTTCATTCTACGCTGTCAATCGCGCGAGCTGCTTGAGCTGACCATTGACCTAGCAGGGC
B8: NRC3_wobSeed58_DR2_A7T_o1 (dsDNA)
DNA 1: GCATCGTAAGGTCGTGAGGTGAGTATACAGAAAGGCGCGATTGACAGCGTAGAATGAAGG
DNA 2: CCTTCATTCTACGCTGTCAATCGCGCCTTTCTGTATACTCACCTCACGACCTTACGATGC
B9: NRC3_wobSeed2_DR0_C25T_o1 (dsDNA)
DNA 1: GCCCTAGTTGGTCAAGGTCACACATGCTATAGGTACGCGATTGACAGCGTAGAATGAAGG
DNA 2: CCTTCATTCTACGCTGTCAATCGCGTACCTATAGCATGTGTGACCTTGACCAACTAGGGC
B10: NRC3_wobSeed72_DR2_A9G_o1 (dsDNA)
DNA 1: GCTCGAGTGGGTTACGGGGGCATTCAGGGATGAAGAGCGATTGACAGCGTAGAATGAAGG
DNA 2: CCTTCATTCTACGCTGTCAATCGCTCTTCATCCCTGAATGCCCCCGTAACCCACTCGAGC
B11: NRC3_wobSeed64_DR2_o1 (dsDNA)
DNA 1: GCTAGCCTAGGTCATTGGGCCAGTATAGTACGCATCGCGATTGACAGCGTAGAATGAAGG
DNA 2: CCTTCATTCTACGCTGTCAATCGCGATGCGTACTATACTGGCCCAATGACCTAGGCTAGC
B12: NRC3_wobSeed64_DR2_C21T_o1 (dsDNA)
DNA 1: B11 DNA 1 with C21T
DNA 2: B11 DNA 2 with G40A
B13: NRC3_wobSeed64_DR2_G17T_o1 (dsDNA)
DNA 1: B11 DNA 1 with G17T
DNA 2: B11 DNA 2 with C44A
B14: NRC3_wobSeed15_DR0_G16C_o1 (dsDNA)
DNA 1: GCCGAACTAGGTCAACGACAGTGAATCTCCGCACGCGCGATTGACAGCGTAGAATGAAGG
DNA 2: CCTTCATTCTACGCTGTCAATCGCGCGTGCGGAGATTCACTGTCGTTGACCTAGTTCGGC
B15: NRC3_wobSeed82_DR3_C16G_o1 (dsDNA)
DNA 1: GCATCGAAAGGTCGAGGAGGTGAGTATACACCGTTTGCGATTGACAGCGTAGAATGAAGG
DNA 2: CCTTCATTCTACGCTGTCAATCGCAAACGGTGTATACTCACCTCCTCGACCTTTCGATGC
B16: NRC3_wobSeed82_DR3_T21A_o1 (dsDNA)
DNA 1: B15 DNA 1 with G16C, T21A
DNA 2: B15 DNA 2 with A40T, C45G
B17: NRC3_wobSeed82_DR3_T4A_o1 (dsDNA)
DNA 1: B15 DNA 1 with T4A, G16C
DNA 2: B15 DNA 2 with C45G, A57T
B18: NRC3_wobSeed99_DR4_A26T_o1 (dsDNA)
DNA 1: GCTCTCGGAGGACACGAAAGGTCAGTGCTCGACATCGCGATTGACAGCGTAGAATGAAGG
DNA 2: CCTTCATTCTACGCTGTCAATCGCGATGTCGAGCACTGACCTTTCGTGTCCTCCGAGAGC
B19: NRC3_wobSeed3_DR0_A22G_o1 (dsDNA)
DNA 1: GCGCTCGGAGGACAAGGTCAGGGCTTTGTCCGTAGAGCGATTGACAGCGTAGAATGAAGG
DNA 2: CCTTCATTCTACGCTGTCAATCGCTCTACGGACAAAGCCCTGACCTTGTCCTCCGAGCGC
B20: NRC3_wobSeed4_DR0_T25G_o1 (dsDNA)
DNA 1: GCCCTACTGGGCCAAGGTCATTGAGCAGTCAAAGCAGCGATTGACAGCGTAGAATGAAGG
DNA 2: CCTTCATTCTACGCTGTCAATCGCTGCTTTGACTGCTCAATGACCTTGGCCCAGTAGGGC
B21: NRC3_wobSeed75_DR3_A25C_o1 (dsDNA)
DNA 1: GCTCTCGGAGGACACGAAGGTCAGCGCTTTCCAGAGGCGATTGACAGCGTAGAATGAAGG
DNA 2: CCTTCATTCTACGCTGTCAATCGCCTCTGGAAAGCGCTGACCTTCGTGTCCTCCGAGAGC
B22: NRC3_wobSeed34_DR1_T19A_o1 (dsDNA)
DNA 1: GCATCGAAAGGTCGAAGGAGAGTATACCCACCCGAAGCGATTGACAGCGTAGAATGAAGG
DNA 2: CCTTCATTCTACGCTGTCAATCGCTTCGGGTGGGTATACTCTCCTTCGACCTTTCGATGC
B23: NRC3_wobSeed17_DR0_T6A_o1 (dsDNA)
DNA 1: GCATAAGTAGGTTAGGGTCATTCAGAAAGTAGGGAAGCGATTGACAGCGTAGAATGAAGG
DNA 2: CCTTCATTCTACGCTGTCAATCGCTTCCCTACTTTCTGAATGACCCTAACCTACTTATGC
B24: NRC3_wobSeed141_DR5_A25C_o1 (dsDNA)
DNA 1: GCAGTCAAAGTTCAGGACGAGGTACCGTAAAGCACGGCGATTGACAGCGTAGAATGAAGG
DNA 2: CCTTCATTCTACGCTGTCAATCGCCGTGCTTTACGGTACCTCGTCCTGAACTTTGACTGC
B25: NRC3_wobSeed63_DR2_T24C_o1 (dsDNA)
DNA 1: GCCGAACTAGGTCACCAGGACAGCGAAGAGGTTGGAGCGATTGACAGCGTAGAATGAAGG
DNA 2: CCTTCATTCTACGCTGTCAATCGCTCCAACCTCTTCGCTGTCCTGGTGACCTAGTTCGGC
B26: NRC3_wobSeed87_DR3_C17G_o1 (dsDNA)
DNA 1: GCCGAACTAGGTCATCGAGGACAGTGAATACATTGAGCGATTGACAGCGTAGAATGAAGG
DNA 2: CCTTCATTCTACGCTGTCAATCGCTCAATGTATTCACTGTCCTCGATGACCTAGTTCGGC
B27: NRC3_wobSeed110_DR4_A9G_o1 (dsDNA)
DNA 1: GCTCTGCTGGGTCAACGATGGTCAGCTAATCTGCTAGCGATTGACAGCGTAGAATGAAGG
DNA 2: CCTTCATTCTACGCTGTCAATCGCTAGCAGATTAGCTGACCATCGTTGACCCAGCAGAGC
B28: NRC3_wobSeed5_DR0_A15G_o1 (dsDNA)
DNA 1: GCCCTTACGGGTCAGGGTTATAGCACGGGTGGTACGGCGATTGACAGCGTAGAATGAAGG
DNA 2: CCTTCATTCTACGCTGTCAATCGCCGTACCACCCGTGCTATAACCCTGACCCGTAAGGGC
B29: NRC3_wobSeed86_DR3_G15T_o1 (dsDNA)
DNA 1: GCGCTGCTAGGTCATGTTGGTCAGCTAACGGGTACGGCGATTGACAGCGTAGAATGAAGG
DNA 2: CCTTCATTCTACGCTGTCAATCGCCGTACCCGTTAGCTGACCAACATGACCTAGCAGCGC
B30: NRC3_wobSeed101_DR4_A24C_o1 (dsDNA)
DNA 1: GCCCTTACGGGTCACTCCAGGTTCTAGCATCGGAGTGCGATTGACAGCGTAGAATGAAGG
DNA 2: CCTTCATTCTACGCTGTCAATCGCACTCCGATGCTAGAACCTGGAGTGACCCGTAAGGGC
B31: NRC3_wobSeed74_DR3_C13G_o1 (dsDNA)
DNA 1: GCTCTAGTTGGTGACGGAGGTCACACACGACGGGTAGCGATTGACAGCGTAGAATGAAGG
DNA 2: CCTTCATTCTACGCTGTCAATCGCTACCCGTCGTGTGTGACCTCCGTCACCAACTAGAGC

Among the data in PMC6555819, “Comprehensive study of nuclear receptor DNA binding provides a revised framework for understanding receptor specificity” are binding signal values, retold here.

Substitutions are numbered along the chain they refer to.

Sequence of RARg:RXRa (P13631 whole entry, chain 1 of 2): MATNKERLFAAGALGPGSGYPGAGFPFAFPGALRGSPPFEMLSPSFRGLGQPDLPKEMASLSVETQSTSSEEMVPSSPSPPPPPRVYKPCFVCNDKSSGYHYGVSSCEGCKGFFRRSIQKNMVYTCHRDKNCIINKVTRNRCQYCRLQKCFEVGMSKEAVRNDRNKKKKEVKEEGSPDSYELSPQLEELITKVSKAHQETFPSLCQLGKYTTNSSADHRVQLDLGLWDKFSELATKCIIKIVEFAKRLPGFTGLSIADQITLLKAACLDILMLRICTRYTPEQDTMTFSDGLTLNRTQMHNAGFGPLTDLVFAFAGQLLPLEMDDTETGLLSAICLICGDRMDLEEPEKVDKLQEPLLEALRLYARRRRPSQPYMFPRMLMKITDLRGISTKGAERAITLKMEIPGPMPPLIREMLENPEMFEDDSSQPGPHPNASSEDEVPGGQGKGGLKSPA
Sequence of RARg:RXRa (P19793 whole entry, chain 2 of 2): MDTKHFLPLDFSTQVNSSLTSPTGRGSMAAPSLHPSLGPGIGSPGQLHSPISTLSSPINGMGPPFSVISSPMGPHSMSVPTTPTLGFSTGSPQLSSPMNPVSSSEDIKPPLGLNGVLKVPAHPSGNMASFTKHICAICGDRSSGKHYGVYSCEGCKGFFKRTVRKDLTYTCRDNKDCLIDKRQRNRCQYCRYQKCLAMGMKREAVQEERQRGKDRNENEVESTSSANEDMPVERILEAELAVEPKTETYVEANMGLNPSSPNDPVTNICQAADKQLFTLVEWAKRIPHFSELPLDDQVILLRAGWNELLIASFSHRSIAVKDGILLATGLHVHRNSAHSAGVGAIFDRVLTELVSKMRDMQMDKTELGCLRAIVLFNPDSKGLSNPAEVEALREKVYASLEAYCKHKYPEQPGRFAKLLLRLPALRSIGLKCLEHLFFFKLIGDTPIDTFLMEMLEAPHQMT

The data set addresses RARg:RXRa (Homo sapiens, UniProt P13631;P19793 full;full). Put plainly: no ligand; PBM; 270 nM : 90 nM RXRa; PBS pH 7.4, 2% milk, 0.02% Triton X-100, 1 mM DTT, BSA, 0.4 mg/ml salmon testes DNA. The note with it: tags: His kept;His cleaved; copies: 1;1; label: surface-attached array probe. In outline: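 Ligand-free nuclear receptor dimers were bound for 1 h to custom Agilent 4×180K protein-binding microarrays. Detection used antibodies against each partner (one per run). Binding z-scores rest on regression-normalized fluorescence, with random background probes as the reference.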
B1: the binding signal is 3.83 PBM z-score against 500 random probes.

With B2, the binding signal was 3.97 PBM z-score against 500 random probes.

With B3, the binding signal is 3.93 PBM z-score against 500 random probes.

Regarding B4, the binding signal is 4.06 PBM z-score against 500 random probes.

For the molecule B5, the binding signal was 3.41 PBM z-score against 500 random probes.

On to B6, for which the binding signal is 4.34 PBM z-score against 500 random probes.

Consider B7, for which the binding signal was 3.58 PBM z-score against 500 random probes.

Consider B8, for which the binding signal is 3.36 PBM z-score against 500 random probes.

As to B9, the binding signal is 4.31 PBM z-score against 500 random probes.

For the molecule B10, the binding signal was 3.31 PBM z-score against 500 random probes.

Consider B11, for which the binding signal is 3.78 PBM z-score against 500 random probes.

As to B12, the binding signal is 3.53 PBM z-score against 500 random probes.

Take B13: the binding signal was 3.69 PBM z-score against 500 random probes.

Turning to B14, the binding signal is 3.81 PBM z-score against 500 random probes.

For the molecule B15, the binding signal was 4.27 PBM z-score against 500 random probes.

B16: the binding signal was 4.02 PBM z-score against 500 random probes.

Turning to B17, the binding signal is 4.09 PBM z-score against 500 random probes.

For B18, the binding signal is 4.39 PBM z-score against 500 random probes.

Regarding B19, the binding signal was 3.61 PBM z-score against 500 random probes.

On to B20, for which the binding signal is 3.95 PBM z-score against 500 random probes.

With B21, the binding signal is 3.49 PBM z-score against 500 random probes.

On to B22, for which the binding signal is 3.65 PBM z-score against 500 random probes.

For B23, the binding signal is 4.22 PBM z-score against 500 random probes.

B24: the binding signal is 4.17 PBM z-score against 500 random probes.

Regarding B25, the binding signal was 4.29 PBM z-score against 500 random probes.

Turning to B26, the binding signal is 4.03 PBM z-score against 500 random probes.

Regarding B27, the binding signal is 3.45 PBM z-score against 500 random probes.

B28: the binding signal is 3.72 PBM z-score against 500 random probes.

As for B29, the binding signal was 3.75 PBM z-score against 500 random probes.

For the molecule B30, the binding signal was 4.14 PBM z-score against 500 random probes.

Take B31: the binding signal is 3.87 PBM z-score against 500 random probes.
